# Assay results: patent US20090162358A1 (GlaxoSmithKline, published 2009)
# Several values for one entry are separate records, joined by “and”; a condition that tells them apart may be missing. Identical values can stand only once. * marks the point of attachment. Biotin = O=C1N[C@H]2[C@H](CS[C@H]2CCCCC(=O)*)N1
# T1: C-terminally truncated β-amyloid peptide lacking residues V40 to G33 (residues 23-32) (UniProt P05067 694-703, not fully specified)
# T1 construct: domain: β-amyloid residues 23-32; Stands also for the shorter peptides of the set ('and beyond'); not shown: SGSG linker lengthened to make a 22-mer
# T1 peptide (looked up): Biotin-DVGSNKGAII-NH2
# T2: N-terminally truncated β-amyloid peptide lacking residues D23 to I31 (residues 32-40) (UniProt P05067 703-711, not fully specified)
# T2 construct: domain: β-amyloid residues 32-40; Stands also for the shorter peptides of the set ('and beyond'); not shown: SGSG linker lengthened to make a 22-mer
# T2 peptide (looked up): Biotin-IGLMVGGVV-NH2
# B1: humanised antibody H11L9 (antibody, human IgG1, kappa)
# heavy: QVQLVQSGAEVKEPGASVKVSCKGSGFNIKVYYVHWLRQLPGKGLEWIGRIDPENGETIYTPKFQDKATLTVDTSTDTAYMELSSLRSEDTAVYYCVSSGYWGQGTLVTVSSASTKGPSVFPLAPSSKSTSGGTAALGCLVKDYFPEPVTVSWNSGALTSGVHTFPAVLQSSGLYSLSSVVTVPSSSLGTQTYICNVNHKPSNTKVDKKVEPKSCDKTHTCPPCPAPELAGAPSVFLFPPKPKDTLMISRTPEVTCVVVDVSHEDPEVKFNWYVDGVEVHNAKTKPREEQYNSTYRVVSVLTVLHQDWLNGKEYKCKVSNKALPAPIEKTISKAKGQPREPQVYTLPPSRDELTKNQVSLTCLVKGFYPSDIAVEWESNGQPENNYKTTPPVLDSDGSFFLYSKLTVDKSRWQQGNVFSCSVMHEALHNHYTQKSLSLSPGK
# light: DIVMTQSPLSNPVTPGEPASISCRSSKSLLHRNGITYLYWYLQKPGQSPQLLIYQMSNLASGVPDRFSSSGSGTDFTLKISRVEAEDVGVYYCAQNLELWTFGQGTKVEIKRTVAAPSVFIFPPSDEQLKSGTASVVCLLNNFYPREAKVQWKVDNALQSGNSQESVTEQDSKDSTYSLSSTLTLSKADYEKHKVYACEVTHQGLSSPVTKSFNRGEC
# notes: Human IgG1 Fc mutated heavy chain, human kappa; also called H11L9(sup); H11L9(pur)
# Legend:
# [1] = biological target: T3, biotinylated β-amyloid 1-40 (human Aβ1-40 peptide in solution, competition ELISA) (human, UniProt P05067 672-711, biotin, position not stated); experiment: competition ELISA: antibody pre-incubated with biotinylated Aβ 1-40, free Aβ captured on immobilised mouse 6F6 (competitor); Exp 2
# T3 construct: domain: β-amyloid (1-40)
# Procedure: (§1) 6F6c and humanised antibodies H₁₁L2, H11L9, H11L10, H11L12 and H11L13 were assessed for their ability to bind Aβ1-40 peptide in solution and inhibit the interaction of human Aβ1-40 peptide with mouse 6F6 monoclonal antibody in a competition ELISA. A constant concentration of biotinylated β-amyloid 1-40 was pre-incubated with serial diluted amounts of humanised 6F6 antibody variants. The mixture including complexed and free amyloid was then added to wells containing immobilised mouse 6F6 monoclonal antibody and incubated for 15 minutes at room temperature. Plates were washed and the amount of free β-amyloid that was still available for binding the immobilised parental 6F6 monoclonal antibody was then detected using streptavidin-HRP conjugate.
# human β-amyloid 1-40 [2] = biological target: T4, human β-amyloid 1-40 (human, UniProt P05067 672-711); experiment: SPR Biacore T100 at 37 C; antibody captured on anti-human IgG, Aβ 1-40 at 1-256 nM
# T4 construct: domain: β-amyloid (1-40); Used in solution over captured antibody (Biacore) or coated on ELISA plates; also called human Aβ peptide (1-40); Aβ peptide (1-40)
# Procedure: (§2) Anti-human IgG (Biacore BR-1008-39) was coupled to a CM5 biosensor chip by primary amine coupling. The anti-beta amyloid antibodies were captured on this surface. Beta amyloid (1-40) was then passed over at 256, 64, 16, 4 and 1 nM, with a 0 nM (ie buffer alone passed over the captured antibody surface) used for double referencing. […] The data was analysed using the 1:1 model inherent to the T100. The run was carried out at 25° C. and 37° C. using HBS-EP as the running buffer.
# From this panel some constructs were also assessed for binding kinetics at physiological temperature.
# [3] = biological target: T3, biotinylated β-amyloid 1-40 (human …); experiment: competition ELISA: antibody pre-incubated with biotinylated Aβ 1-40, free Aβ captured on immobilised mouse 6F6 (competitor); Exp 1
# Procedure: as §1
# human β-amyloid 1-40 [4] = biological target: T4, human β-amyloid 1-40; experiment: SPR Biacore T100, 25 C; antibody captured on protein A, Aβ 1-40 at 2-256 nM; mean of three experiments
# Procedure: The affinity of selected heavy and light chain combinations was determined using a Biacore T100 instrument. Three independent experiments were performed using humanised antibody immobilised via protein A surface Biacore chips and injection of β-amyloid 1-40 peptides. The chimeric molecule of 6F6 served as a reference molecule. For this Protein A was immobilised on a CM5 chip by primary amine coupling in accordance with manufactures recommendations. Anti-β-amyloid antibodies were captured on this surface and after a period of stabilisation human β-amyloid 1-40 was passed over at concentrations 256-2 nM in halving dilutions. A buffer injection over the captured antibody surface was used to double reference the data set in accordance with Biacore best practice. […] The work was carried out in HBS-EP at 25° C. Results are summarised in Table 13 as the mean of all three experiments.
# human β-amyloid 1-40 [5] = biological target: T4, human β-amyloid 1-40; experiment: SPR Biacore T100; antibody captured on anti-human IgG, Aβ 1-40 at 1-256 nM; 1:1 model
# Procedure: as §2
# [6] = biological target: T1, C-terminally truncated β-amyloid …; experiment: SRU BIND biosensor, biotinylated peptides on streptavidin plate
# Text: (§3) The minimal binding epitope of the humanised monoclonal antibody H11L9 was fine mapped using SRU BIND plate reader (SRU Biosystems). Three peptide sets were generated, based on an 18 amino acid sequence for fine mapping of the epitope: a) an alanine scanning peptide set for which 10 of the residues 27-37 were replaced consecutively with an alanine residue; b) a set of N-terminally truncated peptides where one residue was removed successively from the N-terminus of the 18-mer peptide starting with residue 23 and c) a set of C-terminally truncated peptides where one residue was removed successively from the C-terminus of the 18-mer peptide starting with residue 40.
# (§4) A streptavidin coated biosensor plate (SRU Biosystems) was washed with PBS and spun upside down to remove buffer and then washed with PBS, 0.1% tween 20 and 0.4% acetonitrile and spun upside down to remove residual buffer. Wells were resuspended in 100 ul of PBS, 0.1% tween 20 and 0.4% acetonitrile and read on the SRU plate reader to establish a baseline. […] The plate was then washed with PBS twice and then resuspended in 100 ul of PBS and the baseline re-measured. […] Binding of the antibodies was monitored. Plates were washed twice with PBS and resuspended in 100 ul of PBS, and the plates were re-measured and referenced back to the addition of antibody to look for weak binders that would be removed by the washing step. […]
# [7] = biological target: T2, N-terminally truncated β-amyloid …; experiment: as above
# Text: as §3, §4
binder,measurement,setting,value
B1,IC50,[1],0.518 µg/mL
same,Kd,human β-amyloid 1-40 [2],2.89 nM and 3.11 nM
same,IC50,[3],0.588 µg/mL
same,Kd,human β-amyloid 1-40 [4],4.91 nM
same,Kd,human β-amyloid 1-40 [5],2.47 nM and 2.46 nM
same,binding result,[6],no binding (tested: 30 ug/ml)
same,binding result,[7],no binding (tested: 30 ug/ml)
